This passage reports inhibition of MMP-9 activity; FRET peptide substrate, average of three independent experiments, CLU 50 µg/ml, inhibition of MMP-9 activity; FRET peptide substrate, pro-MMP-9 with APMA, 3 h, CLU 50 µg/ml (0.63 µM) and fold stronger affinity for CLU than the other forms of MMP-9 (band densities, Image J) results from US10398755.

Assay [1] concerns the target Pro-MMP-9 (recombinant) (Mus musculus (Mouse)) (UniProt P41245). Kind of assay: cell-based or functional assay.
The target is the same in assay [2]. Put plainly: CLU-His pull-down with anti-His tag antibody beads, gelatin zymography, densitometry; reference: MMP-9 and MMP-9-ΔC.

Sequence of mouse CLU with C-terminal (His)6 (CLU-His), recombinant secreted clusterin (Q06890 other isoform, or with tags, fused parts or gaps): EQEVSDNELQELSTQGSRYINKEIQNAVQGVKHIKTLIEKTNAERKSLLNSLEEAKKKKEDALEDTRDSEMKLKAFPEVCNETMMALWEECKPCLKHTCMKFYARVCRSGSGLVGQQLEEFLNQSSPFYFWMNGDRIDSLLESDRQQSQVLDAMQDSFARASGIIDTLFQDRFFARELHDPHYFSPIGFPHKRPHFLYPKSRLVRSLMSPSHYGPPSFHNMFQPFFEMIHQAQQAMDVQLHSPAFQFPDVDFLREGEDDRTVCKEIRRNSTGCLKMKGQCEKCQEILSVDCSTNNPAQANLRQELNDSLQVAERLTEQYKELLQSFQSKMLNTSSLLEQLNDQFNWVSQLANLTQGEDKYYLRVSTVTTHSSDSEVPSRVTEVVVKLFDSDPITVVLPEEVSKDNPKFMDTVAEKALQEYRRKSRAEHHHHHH

As to “mouse CLU with C-terminal (His)6 (CLU-His), recombinant secreted clusterin (from UniProt Q06890 22-448)”, in assay [1], the inhibition of MMP-9 activity; FRET peptide substrate, average of three independent experiments, CLU 50 µg/ml was found to be 35% and the inhibition of MMP-9 activity; FRET peptide substrate, pro-MMP-9 with APMA, 3 h, CLU 50 µg/ml (0.63 µM) is 28%. Also, the fold stronger affinity for CLU than the other forms of MMP-9 (band densities, Image J) in assay [2] is over 10 times.
